Drawing on PMC2901902, this text covers fold reduction of co-occupancy (against wild type DPF3b) and fold reduction in affinity (against wild type PHD12) for two substances.

Experiment [1] addresses histone H3 acetylated at lysine 14 in C2C12 chromatin (mouse (endogenous in C2C12)) (UniProt P68433). The experiment is described as follows: re-ChIP.
In experiment [2] the target is DPF3b PHD12 with Ala mutation of Glu315 or Asp335. The experiment in a line: ITC. For orientation: In ITC the heat of successive injections is recorded.

For the substance EGFP-DPF3b D263A or F264A mutant, the fold reduction of co-occupancy (against wild type DPF3b) in experiment [1] was 2 to 3 fold. The substance “histone H3 peptide acetylated at lysine 14 (residues 1–18) (from UniProt P68431 2-19)” displayed a fold reduction in affinity (against wild type PHD12) in experiment [2] of 80 to 250 fold.
